Results taken from US20170129921A1.

Target: Human C5a receptor 2 (human) (UniProt Q9P296)
Test: 125I-C5a displacement, SPA on Flp-In CHO-C5a2 membranes

Sequence of Human C5a receptor 2 (human) (Q9P296 whole entry): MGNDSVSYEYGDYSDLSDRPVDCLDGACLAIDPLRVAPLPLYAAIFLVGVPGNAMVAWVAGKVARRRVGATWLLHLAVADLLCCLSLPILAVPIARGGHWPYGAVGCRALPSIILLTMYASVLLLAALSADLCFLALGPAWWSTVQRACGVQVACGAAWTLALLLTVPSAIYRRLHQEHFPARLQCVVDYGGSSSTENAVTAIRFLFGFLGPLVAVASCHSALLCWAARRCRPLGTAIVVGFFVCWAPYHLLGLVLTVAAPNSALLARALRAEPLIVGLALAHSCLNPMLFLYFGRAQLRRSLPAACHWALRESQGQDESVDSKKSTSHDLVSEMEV
Sequence of Human isolated C3a, P01024 672-748 (ligand; other documents disagree on this pair) (P01024 672-748): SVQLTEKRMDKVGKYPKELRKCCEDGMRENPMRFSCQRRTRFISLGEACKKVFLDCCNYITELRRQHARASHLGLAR
Sequence of Human isolated C3a-des Arg, P01024 672-747 (ligand; other documents disagree on this pair) (P01024 672-747 limits assumed): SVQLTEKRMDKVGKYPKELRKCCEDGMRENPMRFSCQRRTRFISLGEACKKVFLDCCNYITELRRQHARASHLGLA

Row | Ki [nM] | Substance
1 | > 1000 | Human isolated C3a, P01024 672-748 (ligand; other documents disagree on this pair)
2 | > 1000 | Human isolated C3a-des Arg, P01024 672-747 (ligand; other documents disagree on this pair)
